Test results from article PMC9285637 (Molecular cancer research : MCR, 2019).

T1: mCherry-LacI-PALB2^WD40 (UniProt Q86YC2 841-1186)
T1 sequence (looked up): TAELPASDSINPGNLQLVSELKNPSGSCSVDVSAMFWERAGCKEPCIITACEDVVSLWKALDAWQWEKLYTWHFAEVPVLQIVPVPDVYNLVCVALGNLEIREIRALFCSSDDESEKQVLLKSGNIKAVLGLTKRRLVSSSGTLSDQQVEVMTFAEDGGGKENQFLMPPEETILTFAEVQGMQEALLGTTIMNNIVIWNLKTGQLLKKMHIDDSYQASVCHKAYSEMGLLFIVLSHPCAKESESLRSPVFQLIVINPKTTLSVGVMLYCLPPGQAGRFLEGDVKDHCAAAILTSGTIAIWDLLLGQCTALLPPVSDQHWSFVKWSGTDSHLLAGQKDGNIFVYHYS

T2: mCherry-LacI-PALB2^FL (UniProt Q86YC2 1-1186)
T2 sequence (looked up): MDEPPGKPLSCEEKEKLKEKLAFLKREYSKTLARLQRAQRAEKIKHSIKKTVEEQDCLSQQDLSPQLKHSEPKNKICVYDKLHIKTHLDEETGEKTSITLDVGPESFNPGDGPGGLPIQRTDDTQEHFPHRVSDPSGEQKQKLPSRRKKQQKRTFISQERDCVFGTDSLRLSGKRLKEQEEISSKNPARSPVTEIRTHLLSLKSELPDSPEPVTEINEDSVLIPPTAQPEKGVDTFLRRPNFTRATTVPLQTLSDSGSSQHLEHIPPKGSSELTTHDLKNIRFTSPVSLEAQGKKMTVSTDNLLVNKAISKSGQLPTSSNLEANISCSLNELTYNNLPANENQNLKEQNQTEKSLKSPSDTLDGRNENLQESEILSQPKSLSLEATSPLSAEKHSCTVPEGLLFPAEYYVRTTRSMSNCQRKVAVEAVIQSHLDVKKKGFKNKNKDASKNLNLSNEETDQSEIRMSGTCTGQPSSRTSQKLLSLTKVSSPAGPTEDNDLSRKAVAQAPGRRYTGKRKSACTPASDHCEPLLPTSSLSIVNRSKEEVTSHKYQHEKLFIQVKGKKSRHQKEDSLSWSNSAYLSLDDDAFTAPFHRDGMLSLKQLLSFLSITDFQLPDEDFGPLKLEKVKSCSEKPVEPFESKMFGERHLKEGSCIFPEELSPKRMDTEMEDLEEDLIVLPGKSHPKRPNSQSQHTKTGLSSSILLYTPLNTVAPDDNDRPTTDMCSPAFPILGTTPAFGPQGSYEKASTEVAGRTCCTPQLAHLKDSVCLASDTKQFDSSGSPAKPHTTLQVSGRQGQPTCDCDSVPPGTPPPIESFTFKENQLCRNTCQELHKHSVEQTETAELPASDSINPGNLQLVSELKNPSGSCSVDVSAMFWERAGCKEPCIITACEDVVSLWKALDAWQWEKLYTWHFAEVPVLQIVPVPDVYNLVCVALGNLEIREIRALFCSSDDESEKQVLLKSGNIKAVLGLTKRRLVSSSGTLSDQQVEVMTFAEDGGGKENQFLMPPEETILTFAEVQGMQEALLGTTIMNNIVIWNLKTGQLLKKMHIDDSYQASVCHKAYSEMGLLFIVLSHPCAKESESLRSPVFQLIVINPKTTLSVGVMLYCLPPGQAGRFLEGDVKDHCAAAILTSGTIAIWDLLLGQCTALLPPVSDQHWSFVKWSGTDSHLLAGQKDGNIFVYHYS


Legend:
[1] = target: T1, mCherry-LacI-PALB2^WD40; experiment: LacO/LacI tethering recruitment assay
[2] = target: T2, mCherry-LacI-PALB2^FL; experiment: LacO/LacI tethering recruitment assay

Binder | percent of cells with recruitment of GFP-USP22 to the LacO array [1] | percent of cells with recruitment of GFP-USP22 to the LacO array [2]
GFP-USP22^DUB (domain or fragment, human, UniProt Q9UPT9 164-525, looked up) RRKITSNCTIGLRGLINLGNTCFMNCIVQALTHTPLLRDFFLSDRHRCEMQSPSSCLVCEMSSLFQEFYSGHRSPHIPYKLLHLVWTHARHLAGYEQQDAHEFLIAALDVLHRHCKGDDNGKKANNPNHCNCIIDQIFTGGLQSDVTCQVCHGVSTTIDPFWDISLDLPGSSTPFWPLSPGSEGNVVNGESHVSGTTTLTDCLRRFTRPEHLGSSAKIKCSGCHSYQESTKQLTMKKLPIVACFHLKRFEHSAKLRRKITTYVSFPLELDMTPFMASSKESRMNGQYQQPTDSLNNDNKYSLFAVVNHQGTLESGHYTSFIRQHKDQWFKCDDAIITKASIKDVLDSEGYLLFYHKQFLEYE | 55% | 
GFP-USP22 (enzyme, human, UniProt Q9UPT9 1-525, looked up) MVSRPEPEGEAMDAELAVAPPGCSHLGSFKVDNWKQNLRAIYQCFVWSGTAEARKRKAKSCICHVCGVHLNRLHSCLYCVFFGCFTKKHIHEHAKAKRHNLAIDLMYGGIYCFLCQDYIYDKDMEIIAKEEQRKAWKMQGVGEKFSTWEPTKRELELLKHNPKRRKITSNCTIGLRGLINLGNTCFMNCIVQALTHTPLLRDFFLSDRHRCEMQSPSSCLVCEMSSLFQEFYSGHRSPHIPYKLLHLVWTHARHLAGYEQQDAHEFLIAALDVLHRHCKGDDNGKKANNPNHCNCIIDQIFTGGLQSDVTCQVCHGVSTTIDPFWDISLDLPGSSTPFWPLSPGSEGNVVNGESHVSGTTTLTDCLRRFTRPEHLGSSAKIKCSGCHSYQESTKQLTMKKLPIVACFHLKRFEHSAKLRRKITTYVSFPLELDMTPFMASSKESRMNGQYQQPTDSLNNDNKYSLFAVVNHQGTLESGHYTSFIRQHKDQWFKCDDAIITKASIKDVLDSEGYLLFYHKQFLEYE | 37.5% | 35%
